Measured values from patent publication US20140186359A1 (TORAY INDUSTRIES, published 2014).

T1: human CAPRIN-1 expressed on the surface of human cancer cells (human, UniProt Q14444 2-709)
T1 construct: Endogenous CAPRIN-1 of human cancer cell lines or tissues; also called CAPRIN-1 proteins on the cell membrane surface
T1 sequence: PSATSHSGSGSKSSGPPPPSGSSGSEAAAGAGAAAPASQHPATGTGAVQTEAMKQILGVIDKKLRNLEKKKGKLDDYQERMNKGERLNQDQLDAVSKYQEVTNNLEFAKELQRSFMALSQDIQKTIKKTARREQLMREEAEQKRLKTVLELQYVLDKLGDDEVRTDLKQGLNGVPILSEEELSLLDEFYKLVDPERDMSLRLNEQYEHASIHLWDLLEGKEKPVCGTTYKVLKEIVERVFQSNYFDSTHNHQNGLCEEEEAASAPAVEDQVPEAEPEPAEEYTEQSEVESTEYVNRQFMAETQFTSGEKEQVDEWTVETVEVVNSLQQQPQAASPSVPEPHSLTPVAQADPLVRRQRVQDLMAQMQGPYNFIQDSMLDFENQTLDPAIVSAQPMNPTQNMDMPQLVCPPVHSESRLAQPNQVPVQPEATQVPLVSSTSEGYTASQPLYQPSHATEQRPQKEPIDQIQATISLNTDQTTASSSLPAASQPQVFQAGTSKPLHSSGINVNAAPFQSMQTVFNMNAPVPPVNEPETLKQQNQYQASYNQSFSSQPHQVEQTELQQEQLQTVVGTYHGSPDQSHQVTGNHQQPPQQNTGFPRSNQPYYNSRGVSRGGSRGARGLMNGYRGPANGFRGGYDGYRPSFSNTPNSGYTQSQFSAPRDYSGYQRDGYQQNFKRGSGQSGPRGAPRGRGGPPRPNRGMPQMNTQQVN

T2: partial CAPRIN-1 polypeptide consisting of the amino acid sequence of SEQ ID NO: 5 (human)
T2 construct: Peptide coupled to Immobilizer Amino ELISA plate
T2 peptide: VFNMNAPVPPVNEPETLK


target: T1, human CAPRIN-1 expressed on the surface …; experiment: flow cytometry on the listed human cancer cell lines, culture supernatant, against secondary antibody only
Description: 10⁶ cells of each cell line were centrifuged in each 1.5-ml microcentrifuge tube. Each culture supernatant (100 μl) containing any of the antibodies #1, #2, and #3 and the chicken monoclonal antibodies #1, #2, #3, and #4 was added to the tube and left to stand for 1 hour on ice. After washing with PBS, FITC-labeled goat anti-mouse IgG (H+L) antibodies (manufactured by Jackson ImmunoResearch Laboratories, Inc.) diluted with PBS containing 0.1% FBS for the mouse-derived antibodies or FITC-labeled goat anti-chicken IgG (H+L) antibodies (manufactured by SouthernBiotech) diluted 100-fold with PBS containing 0.1% FBS for the chicken-derived antibodies were added thereto and left to stand at 4° C. for 30 minutes. After washing with PBS, the fluorescence intensity was measured using FACSCalibur (Becton, Dickinson and Company). The negative control used was cells reacted only with secondary antibodies. As a result, all the cells each treated with any of the antibodies #1, #2, and #3 and the chicken monoclonal antibodies #1 to #4 had fluorescence intensity at least 35% stronger than that of the negative control. […] The rates of enhancement in the fluorescence intensity was expressed as the rates of increase in mean fluorescence intensity (MFI) in respective cell lines, which are calculated according to the following formula.

Row | rate of increase in mean fluorescence intensity | Binder
1 | ≥ 35% | mouse monoclonal antibody #1 (antibody, V domains shown, Mouse hybridoma antibody; detected with anti-mouse IgG; also called anti-CAPRIN-1 monoclonal antibody #1) VH: GPGLVQPSQSLSITCTVSGFSLTTYDLHWVRQSPGKGLEWLGVIWSGGSTDYNAAFISRLSISKDNSKSQVFFKMNSLQANDTAIYYCARNYGYSAWFAYWGQGTLVTVSA VL: DVLMTQTPLSLPVSLGDQASISCRSSQSIVHSNGNTYLEWYLQKPGQSPKLLIYKVSNRFSGVPDRFSGSGSGTDFTLKISRVEAEDLGVYYCFQGSHVPLTFGAGTKLELKR
2 | ≥ 35% | chicken monoclonal antibody #3 (antibody, V domains shown, Chicken hybridoma antibody; also called anti-CAPRIN-1 chicken monoclonal antibody #3) VH: AVTLDESGGGLQTPGGGLSLVCKGSGFTFSSFGMFWVRQAPGKGLEFVASISDNGRSTYYGSAVKGRATISRDDGQSTVRLQLNNLRAEDTGTYYCAKNAYVGRGCCFSYSIDAWGHGTEVIVS VL: ALTQPASVSVNPGETVKITCSGGGSSSDAYGWYQQKSPGSAPVTLIYNGSNRPSHIPSRFSGSTSGSTNTLTITGVQVEDEAIYFCGSTDTSTSVGIFGAGTTLTV
3 | ≥ 35% | mouse monoclonal antibody #2 (antibody, V domains shown, Mouse hybridoma antibody; detected with anti-mouse IgG; also called anti-CAPRIN-1 monoclonal antibody #2) VH: GGGLVKPGGSLKLSCAASGFTFSSYGMSWVRQTPEKRLEWVATISSGGSYTYYPDSVKGRFTISRDNAKNTLYLQMSSLRSEDTAMYYCASLASYYFDYWGQGTTLTVSS VL: DVQMIQSPSSLSASLGDIVTMTCQASQGTSINLNWFQQKPGKAPKLLIYGASSLEDGVPSRFSGSCFGTDFTLTISSLEDEDMATYFCLQHSYLPPLTFGAGTKLELKR
4 | ≥ 35% | mouse monoclonal antibody #3 (antibody, V domains shown, Mouse hybridoma antibody; detected with anti-mouse IgG; also called anti-CAPRIN-1 monoclonal antibody #3) VH: GGGLVKPGGSLKLSCAASGFTFSSYGMSWVRQTPEKRLEWVATISSGGSYTYYPDSVKGRFTISRDNAKNTLYLQMSSLRSEDTAMYYCASLASYYFDYWGQGTTLTVSS VL: not shown
5 | ≥ 35% | chicken monoclonal antibody #4 (antibody, V domains shown, Chicken hybridoma antibody; also called anti-CAPRIN-1 chicken monoclonal antibody #4) VH: AVTLDESGGGLQTPGGAVSLVCKGSGFTFSSYGMGWVRQAPGKGLEYVAAIRKDGSTNYGPAVKGRATISRDNGQSTVRLQLSNLRAEDTATYYCAKRSHTGVNAAKIDAWGRGTEVIVS VL: ALTQPASVSANPGETVKITCSGASHNYGWFQQKSPGSAPVTVIYSNDKRPSDIPSRFSGSKSGSTATLTITGVQADDEAVYFCGGYNIYGPTFGAGTTLTV
6 | ≥ 35% | chicken monoclonal antibody #1 (antibody, V domains shown, Chicken hybridoma antibody; also called anti-CAPRIN-1 chicken monoclonal antibody #1) VH: AVTLDESGGGLQTPGGALSLVCKASGFTFRSHSMFWVRQAPGKGLEYVAGIYGVGRSIRYGSAVKGRATMSRDNGQSTVRLQLNNLRAEDTATYYCAKSGYFSNSRYWDSGAYFIDAWGHGTEVIVS VL: ALTQPASVSANPGETVEITCSGGYSNYGWYQQKSPGSAPVTVIYYNDKRPSDIPSRFSGSKSGSTATLTITGVQAEDEAVYFCGGYDSSTDAGIFGAGTTLTV

Target: T2, partial CAPRIN-1 polypeptide consisting …
Experiment: peptide ELISA, culture supernatant
Description: The obtained mouse monoclonal antibodies #2 and #3 were examined for their specific reaction with the amino acid sequence of SEQ ID NO: 5 as a partial CAPRIN-1 sequence used as an immunogen. A 30 μg/ml solution of the amino acid sequence of SEQ ID NO: 5 prepared with a 0.1 M aqueous sodium carbonate solution and a partial CAPRIN-1 sequence free from the amino acid sequence of SEQ ID NO: 5 were each added to a 96-well plate Immobilizer Amino for ELISA (Nunc) at […] and reacted for one whole day and night at 4° C. to bind the peptides to the wells. A 0.1 M aqueous sodium carbonate solution containing 10 mM ethanolamine was added to the peptide-bound wells and left to stand at room temperature for 1 hour. The solution in each well was removed, and each well was then washed with PBS-T. Then, a Blockace solution was added thereto at 400 μl/well and left to stand at room temperature for 3 hours. The solution in each well was removed, and each well was washed with PBS-T. Then, the culture supernatant containing the mouse monoclonal antibody #2 was added thereto at […] and reacted at room temperature for 1 hour. […] The absorbance was measured at 450 nm and 595 nm using an absorption spectrometer.

Row | binding result | Binder
7 | binds | mouse monoclonal antibody #3 (antibody, V domains shown, Mouse hybridoma antibody; detected with anti-mouse IgG; also called anti-CAPRIN-1 monoclonal antibody #3) VH: GGGLVKPGGSLKLSCAASGFTFSSYGMSWVRQTPEKRLEWVATISSGGSYTYYPDSVKGRFTISRDNAKNTLYLQMSSLRSEDTAMYYCASLASYYFDYWGQGTTLTVSS VL: not shown

target: T1, human CAPRIN-1 expressed on the surface …; experiment: cell-based or functional assay

Row | Binder | ADCC cytotoxic activity (51Cr release) against Caki-2 | ADCC cytotoxic activity (51Cr release) against HCT-116 | ADCC cytotoxic activity (51Cr release) against MCF7 | ADCC cytotoxic activity (51Cr release) against MIAPaCa-2 | ADCC cytotoxic activity (51Cr release) against QG56 | ADCC cytotoxic activity (51Cr release) against all other cancer cell lines listed
8 | human-mouse chimeric comparative monoclonal antibody 7 (antibody, human IgG1, kappa, V domains shown) VH: LQESGAELARPGASVKLSCKASGYTFTSYWMQWVKQRPGQGLEWIGAIYPGDGDTRYTQKFKGKATLTADKSSSTAYMQLSSLASEDSAVYYCARGEYGNYFAYWGQGTTVTVSS VL: TSDASLGERVTITCKASQDINSYLSWFQQKPGKSPKTLIYRANRLVDGVPSRFSGSGSGQDYSLTISSLEYEDMGIYYCLQYDEFPLTFGGGTKLEIKQ | < 8% | < 3% | < 5% | 7% | < 5% | < 4%
9 | human-mouse chimeric comparative monoclonal antibody 10 (antibody, human IgG1, kappa) heavy: not shown light: RLPFYSLEQRATISYRASKNVSTSGYSYMHWNQQKPGQPPKLLIYLVSNLESGVPARFSGSGSGTDFTLNIHPVEEEDAATYYCQHIRELTRSELVPSWKSNTVAAPSVFIFPPSDEQLKSGTASVVCLLNNFYPREAKVQWKVDNALQSGNSQESVTEQDSKDSTYSLSSTLTLSKADYEKHKVYACEVTHQGLSSPVTKSFNRGEC | < 8% | < 3% | < 5% | 7% | < 5% | < 4%
10 | human-mouse chimeric comparative monoclonal antibody 8 (antibody, human IgG1, kappa) heavy: not shown light: EFHAVSLGQRATISCRASESVDSYGNSFMHWYQQKPGQPPKLLIYRASNLESGIPARFSGSGSRTDFTLTINPVEADDVATYYCQQSNEDPGRSEVVPSWRSNKTVAAPSVFIFPPSDEQLKSGTASVVCLLNNFYPREAKVQWKVDNALQSGNSQESVTEQDSKDSTYSLSSTLTLSKADYEKHKVYACEVTHQGLSSPVTKSFNRGEC | < 8% | < 3% | < 5% | 7% | < 5% | < 4%
11 | human-mouse chimeric comparative monoclonal antibody 6 (antibody, human IgG1, kappa) heavy: not shown light: DRVSITCKASQNVRTAVAWYQQKPRQSPKALIYLASNRDTGLPDRFPGRGSGTDFTLNITNVQSEDLEDYFCLQHCNYPNEFRGCTKVPITVAAPSVFIFPPSDEQLKSGTASVVCLLNNFYPREAKVQWKVDNALQSGNSQESVTEQDSKDSTYSLSSTLTLSKADYEKHKVYACEVTHQGLSSPVTKSFNRGEC | < 8% | < 3% | < 5% | 7% | < 5% | < 4%
